Results from patent publication US7763418B2, “Detection of Rho proteins” (Cytoskeleton, Inc., priority 2005, dated 2010).

Biological target: T1, Rac1 (61L) binding to POSH-GBD (Homo sapiens, UniProt P63000, Q61L)
T1 construct: His; purchased Cytoskeleton Inc. R6101
Test: Rac1:POSH G-LISA competition (drug discovery application)
Description: Active Rho protein (typically 7-15 μg total cell lysate or 1-5 ng of constitutively active recombinant protein) were either added directly to the effector bound G-LISA plate (Rac1 and Cdc42 G-LISAs) or diluted with an equal volume of Binding Buffer (20% PEG 8000, Sigma, St. Louis, Mo.) prior to adding to effector bound plates (RhoA G-LISA). The reactions were incubated for 30 minutes at 4° C. on a microtiter titer plate shaker after which wells were washed once with 200 μl of PBST (PBS pH 7.2, 0.05% Tween-20) and immediately treated with 200 μl of Antigen Presenting Buffer (1% trichloroacetic acid (TCA)) for 2-5 minutes at room temperature. Wells were then washed three times with 200 μl each of PBST and primary antibody is added typically at 1 μg/ml (RhoA specific), 0.25 μg/ml (Rac1 specific), 1 μg/ml (Cdc42 specific) and incubated at room temperature for 45 minutes (incubation at 4° C. gave similar results). Wells are washed three times with 200 μl each of PBST and incubated with appropriate secondary antibody for 45 minutes at room temperature (incubation at 4° C. gave similar results). […] After three washes each of 200 μl PBST the activated Rho proteins are detected using absorbance or luminescence detection as described below. […]

IC50 relative to PAK: approximately 80 times
B1: ROCK-GST: RhoA effector ROCK-GBD peptide, negative control inhibitor in Rac1:POSH G-LISA (protein)
chain: EAEQYFSTLYKTQVKELKEEIEEKNRENLKKIQELQNEKETLATQLDLAETKAESEQLARGLLEEQYFELTQESKKAASRNRQEITDKDHTVSRLEEANSMLTKDIEILRRENEELTEKMKKAEEEYKLEKEEEISNLKAAFEKNINTERTLKTQAVNKLAEIMNRKDFKIDRKKANT
modifications: left off: a dimerising Fc or GST
